Assay results from patent US20130084298A1 (ACADEMIA SINICA, published 2013).

Biological target: T1, human clathrin heavy chain (CHC) (human, UniProt Q00610 2-1675)
T1 construct: Endogenous ~190 kDa protein of human cancer cell lines (MIA PaCa-2 and others); No recombinant construct was used; also called CLTC gene product
Assay: hybridoma mAb, target identification

T1 sequence (Q00610 2-1675 limits assumed): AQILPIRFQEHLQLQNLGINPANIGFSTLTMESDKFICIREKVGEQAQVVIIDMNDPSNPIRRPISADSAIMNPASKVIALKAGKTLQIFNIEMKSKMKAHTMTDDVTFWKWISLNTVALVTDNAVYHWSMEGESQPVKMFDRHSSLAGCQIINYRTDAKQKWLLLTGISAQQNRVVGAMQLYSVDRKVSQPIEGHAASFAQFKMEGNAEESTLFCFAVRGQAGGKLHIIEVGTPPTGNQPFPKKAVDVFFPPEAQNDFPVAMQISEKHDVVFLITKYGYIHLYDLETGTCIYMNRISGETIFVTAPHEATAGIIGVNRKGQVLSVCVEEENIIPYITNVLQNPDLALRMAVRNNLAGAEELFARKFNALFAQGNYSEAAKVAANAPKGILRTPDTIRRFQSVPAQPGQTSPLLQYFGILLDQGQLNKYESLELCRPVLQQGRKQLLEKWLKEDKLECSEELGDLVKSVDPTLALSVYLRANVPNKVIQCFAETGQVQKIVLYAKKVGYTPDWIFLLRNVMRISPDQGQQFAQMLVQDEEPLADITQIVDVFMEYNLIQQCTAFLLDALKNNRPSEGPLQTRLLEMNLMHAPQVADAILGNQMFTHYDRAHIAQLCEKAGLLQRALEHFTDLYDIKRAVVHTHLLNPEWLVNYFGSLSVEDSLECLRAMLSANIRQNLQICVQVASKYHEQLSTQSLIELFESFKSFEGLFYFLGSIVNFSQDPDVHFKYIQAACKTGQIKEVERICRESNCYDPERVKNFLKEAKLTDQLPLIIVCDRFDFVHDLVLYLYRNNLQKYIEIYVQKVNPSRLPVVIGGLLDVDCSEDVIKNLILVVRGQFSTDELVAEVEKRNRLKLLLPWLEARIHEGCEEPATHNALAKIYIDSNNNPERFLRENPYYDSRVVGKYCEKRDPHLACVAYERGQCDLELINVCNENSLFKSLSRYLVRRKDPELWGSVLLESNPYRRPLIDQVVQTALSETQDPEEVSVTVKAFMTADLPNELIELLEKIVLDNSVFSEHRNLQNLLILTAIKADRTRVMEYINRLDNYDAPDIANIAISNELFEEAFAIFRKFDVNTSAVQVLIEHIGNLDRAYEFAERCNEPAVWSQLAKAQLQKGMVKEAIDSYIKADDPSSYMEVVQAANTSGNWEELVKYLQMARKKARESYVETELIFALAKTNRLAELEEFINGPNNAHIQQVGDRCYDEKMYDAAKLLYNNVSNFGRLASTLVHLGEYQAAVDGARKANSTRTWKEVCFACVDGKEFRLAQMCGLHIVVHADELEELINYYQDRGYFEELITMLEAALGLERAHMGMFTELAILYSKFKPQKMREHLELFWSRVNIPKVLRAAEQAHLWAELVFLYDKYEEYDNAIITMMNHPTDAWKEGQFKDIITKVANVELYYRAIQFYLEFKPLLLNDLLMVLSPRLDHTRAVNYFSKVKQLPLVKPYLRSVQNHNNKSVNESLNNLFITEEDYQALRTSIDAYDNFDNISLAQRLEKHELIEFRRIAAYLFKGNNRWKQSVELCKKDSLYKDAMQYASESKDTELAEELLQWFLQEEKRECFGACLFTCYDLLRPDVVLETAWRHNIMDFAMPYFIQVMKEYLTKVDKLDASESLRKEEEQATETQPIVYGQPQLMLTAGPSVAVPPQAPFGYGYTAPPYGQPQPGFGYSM

binding result: binds
B1: Pa65-2 (antibody, V domains shown)
VH: EVKLVESGGGLVKPGGSLNISCAASGFTFSNYVMSWVRQTPEKRLEWVATISSGDNYMYYPDSVKGRFTISSDNAKNTLFLQMSSLRSEDTALYYCARHFDNYEGNSMDYWGQGTSVTVSS
VL: DIVLTQSPATLSVTPGDSVSLSCRASQSIRSNLHWYQQKSHESPRLLIKYASQSISGIPSRFSGSGSGTDFILSINSVATEDFGVYFCQQSNSWPLTFGAGTKLELKR
notes: also called Pa65-2 mAb; anti-CHC monoclonal antibody
